Target: Chicken gizzard actin (chicken) (UniProt P63270)
Assay: nanopore sensing

## Chicken gizzard actin (from UniProt P63270 1-376) (natural protein)
  filamentous fraction, initial: 17%
  filamentous fraction, maximum: 75%

From doi:10.1101/829150
